T1: LZTR1-FLAG (human, UniProt Q8N653 1-840)
T1 construct: Expressed in HEK 293T, HeLa or U87 cells; used as cell lysate; also called LZTR1 wild type-FLAG; LZTR1 WT; not shown: FLAG tag at the C-terminus
T1 sequence (looked up): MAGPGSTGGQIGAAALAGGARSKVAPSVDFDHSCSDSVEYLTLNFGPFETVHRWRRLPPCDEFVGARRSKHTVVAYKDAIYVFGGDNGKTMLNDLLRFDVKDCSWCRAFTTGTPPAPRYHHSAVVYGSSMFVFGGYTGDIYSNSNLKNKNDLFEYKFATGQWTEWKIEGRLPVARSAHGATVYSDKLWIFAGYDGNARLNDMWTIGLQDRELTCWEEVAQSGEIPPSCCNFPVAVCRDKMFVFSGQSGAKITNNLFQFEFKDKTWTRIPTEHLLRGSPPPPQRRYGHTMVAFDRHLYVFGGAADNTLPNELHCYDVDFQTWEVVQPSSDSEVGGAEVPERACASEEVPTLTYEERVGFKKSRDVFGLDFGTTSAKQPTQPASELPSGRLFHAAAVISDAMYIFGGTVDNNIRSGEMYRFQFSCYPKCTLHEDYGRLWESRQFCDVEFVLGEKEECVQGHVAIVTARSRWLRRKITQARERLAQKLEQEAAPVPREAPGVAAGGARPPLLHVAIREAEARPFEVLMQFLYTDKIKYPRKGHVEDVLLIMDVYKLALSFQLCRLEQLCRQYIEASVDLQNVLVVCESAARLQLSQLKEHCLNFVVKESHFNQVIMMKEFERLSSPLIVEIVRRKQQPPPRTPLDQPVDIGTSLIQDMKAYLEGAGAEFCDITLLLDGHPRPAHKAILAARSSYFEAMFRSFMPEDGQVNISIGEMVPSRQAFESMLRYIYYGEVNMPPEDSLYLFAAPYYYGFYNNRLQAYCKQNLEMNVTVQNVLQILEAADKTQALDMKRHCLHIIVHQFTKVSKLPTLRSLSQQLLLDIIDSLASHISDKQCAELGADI

T2: LZTR1 R810W-FLAG (human, UniProt Q8N653 1-840)
T2 construct: Stably expressed in U87 cells by lentivirus; also called LZTR1-FLAG-R810W; LZTR1 RW; not shown: FLAG tag
T2 sequence (looked up): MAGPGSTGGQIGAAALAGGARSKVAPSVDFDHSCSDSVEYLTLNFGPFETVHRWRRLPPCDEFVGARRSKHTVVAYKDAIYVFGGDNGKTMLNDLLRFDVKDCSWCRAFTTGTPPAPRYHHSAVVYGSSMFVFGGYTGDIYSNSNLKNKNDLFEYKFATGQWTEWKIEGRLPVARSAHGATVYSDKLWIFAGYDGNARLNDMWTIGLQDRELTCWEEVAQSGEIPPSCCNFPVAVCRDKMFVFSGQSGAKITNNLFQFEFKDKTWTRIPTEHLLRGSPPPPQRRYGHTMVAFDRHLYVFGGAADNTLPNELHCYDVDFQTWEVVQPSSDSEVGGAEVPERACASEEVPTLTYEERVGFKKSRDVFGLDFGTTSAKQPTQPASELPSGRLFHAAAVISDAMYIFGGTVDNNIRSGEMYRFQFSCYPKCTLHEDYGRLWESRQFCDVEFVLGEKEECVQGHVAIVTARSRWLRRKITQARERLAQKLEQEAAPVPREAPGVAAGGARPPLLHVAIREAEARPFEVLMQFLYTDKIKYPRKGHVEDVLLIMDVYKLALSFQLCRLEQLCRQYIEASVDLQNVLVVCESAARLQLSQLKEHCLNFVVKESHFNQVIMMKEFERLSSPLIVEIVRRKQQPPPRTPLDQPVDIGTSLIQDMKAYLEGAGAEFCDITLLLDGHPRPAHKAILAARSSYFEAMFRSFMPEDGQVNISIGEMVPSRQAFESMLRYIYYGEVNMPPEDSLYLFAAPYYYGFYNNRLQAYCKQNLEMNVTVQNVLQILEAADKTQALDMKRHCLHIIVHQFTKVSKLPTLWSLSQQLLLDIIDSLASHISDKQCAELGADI


Legend:
[1] = target: T1, LZTR1-FLAG; experiment: IP/MS, LZTR1 wild type-FLAG, U87
Procedure: (§1) Lysates were immunoprecipitated with FLAG affinity matrix and eluted with FLAG peptide. […] Protein gel slices were excised and in-gel digestion performed as previously described (83), with minor modifications. Gel slices were washed with 1:1 A cetonitrile and 100 mM ammonium bicarbonate for 30 min then dehydrated with 100% acetonitrile for 10 min until shrunk. The excess acetonitrile was then removed and the slices dried in speed-vacuum at room temperature for 10 min. Gel slices were reduced with 5 mM DTT for 30 min at 56° C. in an air thermostat, cooled down to room temperature, and alkylated with 11 mM IAA for 30 min with no light. Gel slices were then washed with 100 mM of ammonium bicarbonate and 100% acetonitrile for 10 min each. Excess acetonitrile was removed and dried in a speed-vacuum for 10 min at room temperature and the gel slices were re-hydrated in a solution of 25 ng/μl trypsin in 50 mM ammonium bicarbonate for 30 min on ice and digested overnight at 37° C. in an air thermostat. Digested peptides were collected and further extracted from gel slices in extraction buffer (1:2 ratio by volume of 5% formic acid:acetonitrile) at high speed, shaking in an air thermostat. The supernatants from both extractions were combined and dried in a speed-vacuum. Peptides were dissolved in 3% acetonitrile/0.1% formic acid. Desalted peptides were injected in an EASY-Spray™ PepMap™ RSLC C18 50 cm×[…] column (Thermo Scientific) connected to an Orbitrap Fusion™ Tribrid™ (Thermo Scientific) as described in “Global ubiquitylation enrichment” section. The following modifications were used for protein identification and quantification: oxidation of methionine (M), acetylation of the protein N-terminus, and deamination for asparagine or glutamine (NQ). Results obtained from MaxQuant were assembled in Scaffold for data visualization.

[2] = target: T2, LZTR1 R810W-FLAG; experiment: IP/MS, LZTR1 R810W-FLAG, U87
Procedure: as §1

Binder	binding result [1]	binding result [2]
BRAT1 (other, human, UniProt Q6PJG6 1-821, looked up) MDPECAQLLPALCAVLVDPRQPVADDTCLEKLLDWFKTVTEGESSVVLLQEHPCLVELLSHVLKVQDLSSGVLSFSLRLAGTFAAQENCFQYLQQGELLPGLFGEPGPLGRATWAVPTVRSGWIQGLRSLAQHPSALRFLADHGAVDTIFSLQGDSSLFVASAASQLLVHVLALSMRGGAEGQPCLPGGDWPACAQKIMDHVEESLCSAATPKVTQALNVLTTTFGRCQSPWTEALWVRLSPRVACLLERDPIPAAHSFVDLLLCVARSPVFSSSDGSLWETVARALSCLGPTHMGPLALGILKLEHCPQALRTQAFQVLLQPLACVLKATVQAPGPPGLLDGTADDATTVDTLLASKSSCAGLLCRTLAHLEELQPLPQRPSPWPQASLLGATVTVLRLCDGSAAPASSVGGHLCGTLAGCVRVQRAALDFLGTLSQGTGPQELVTQALAVLLECLESPGSSPTVLKKAFQATLRWLLSSPKTPGCSDLGPLIPQFLRELFPVLQKRLCHPCWEVRDSALEFLTQLSRHWGGQADFRCALLASEVPQLALQLLQDPESYVRASAVTAMGQLSSQGLHAPTSPEHAEARQSLFLELLHILSVDSEGFPRRAVMQVFTEWLRDGHADAAQDTEQFVATVLQAASRDLDWEVRAQGLELALVFLGQTLGPPRTHCPYAVALPEVAPAQPLTEALRALCHVGLFDFAFCALFDCDRPVAQKSCDLLLFLRDKIASYSSLREARGSPNTASAEATLPRWRAGEQAQPPGDQEPEAVLAMLRSLDLEGLRSTLAESSDHVEKSPQSLLQDMLATGGFLQGDEADCY	binds	binds
CREB3L2 (other, human, UniProt Q70SY1 1-520, looked up) MEVLESGEQGVLQWDRKLSELSEPGDGEALMYHTHFSELLDEFSQNVLGQLLNDPFLSEKSVSMEVEPSPTSPAPLIQAEHSYSLCEEPRAQSPFTHITTSDSFNDDEVESEKWYLSTDFPSTSIKTEPVTDEPPPGLVPSVTLTITAISTPLEKEEPPLEMNTGVDSSCQTIIPKIKLEPHEVDQFLNFSPKEAPVDHLHLPPTPPSSHGSDSEGSLSPNPRLHPFSLPQTHSPSRAAPRAPSALSSSPLLTAPHKLQGSGPLVLTEEEKRTLIAEGYPIPTKLPLSKSEEKALKKIRRKIKNKISAQESRRKKKEYMDSLEKKVESCSTENLELRKKVEVLENTNRTLLQQLQKLQTLVMGKVSRTCKLAGTQTGTCLMVVVLCFAVAFGSFFQGYGPYPSATKMALPSQHSLQEPYTASVVRSRNLLIYEEHSPPEESSSPGSAGELGGWDRGSSLLRVSGLESRPDVDLPHFIISNETSLEKSVLLELQQHLVSAKLEGNETLKVVELDRRVNTTF	binds	binds
CARS (other, human, UniProt P49589 2-748, looked up) ADSSGQQGKGRRVQPQWSPPAGTQPCRLHLYNSLTRNKEVFIPQDGKKVTWYCCGPTVYDASHMGHARSYISFDILRRVLKDYFKFDVFYCMNITDIDDKIIKRARQNHLFEQYREKRPEAAQLLEDVQAALKPFSVKLNETTDPDKKQMLERIQHAVQLATEPLEKAVQSRLTGEEVNSCVEVLLEEAKDLLSDWLDSTLGCDVTDNSIFSKLPKFWEGDFHRDMEALNVLPPDVLTRVSEYVPEIVNFVQKIVDNGYGYVSNGSVYFDTAKFASSEKHSYGKLVPEAVGDQKALQEGEGDLSISADRLSEKRSPNDFALWKASKPGEPSWPCPWGKGRPGWHIECSAMAGTLLGASMDIHGGGFDLRFPHHDNELAQSEAYFENDCWVRYFLHTGHLTIAGCKMSKSLKNFITIKDALKKHSARQLRLAFLMHSWKDTLDYSSNTMESALQYEKFLNEFFLNVKDILRAPVDITGQFEKWGEEEAELNKNFYDKKTAIHKALCDNVDTRTVMEEMRALVSQCNLYMAARKAVRKRPNQALLENIALYLTHMLKIFGAVEEDSSLGFPVGGPGTSLSLEATVMPYLQVLSEFREGVRKIAREQKVPEILQLSDALRDNILPELGVRFEDHEGLPTVVKLVDRNTLLKEREEKRRVEEEKRKKKEEAARRKQEQEAAKLAKMKIPPSEMFLSETDKYSKFDENGLPTHDMEGKELSKGQAKKLKKLFEAQEKLYKEYLQMAQNGSFQ	binds	binds

The remaining lines, values ahead:

binding result [1]	binding result [2]	Binder
binds	binds	CCNB2 (other, human, UniProt O95067 1-398, looked up) MALLRRPTVSSDLENIDTGVNSKVKSHVTIRRTVLEEIGNRVTTRAAQVAKKAQNTKVPVQPTKTTNVNKQLKPTASVKPVQMEKLAPKGPSPTPEDVSMKEENLCQAFSDALLCKIEDIDNEDWENPQLCSDYVKDIYQYLRQLEVLQSINPHFLDGRDINGRMRAILVDWLVQVHSKFRLLQETLYMCVGIMDRFLQVQPVSRKKLQLVGITALLLASKYEEMFSPNIEDFVYITDNAYTSSQIREMETLILKELKFELGRPLPLHFLRRASKAGEVDVEQHTLAKYLMELTLIDYDMVHYHPSKVAAAASCLSQKVLGQGKWNLKQQYYTGYTENEVLEVMQHMAKNVVKVNENLTKFIAIKNKYASSKLLKISMIPQLNSKAVKDLASPLIGRS
binds	binds	CTH (other, human, UniProt P32929 1-405, looked up) MQEKDASSQGFLPHFQHFATQAIHVGQDPEQWTSRAVVPPISLSTTFKQGAPGQHSGFEYSRSGNPTRNCLEKAVAALDGAKYCLAFASGLAATVTITHLLKAGDQIICMDDVYGGTNRYFRQVASEFGLKISFVDCSKIKLLEAAITPETKLVWIETPTNPTQKVIDIEGCAHIVHKHGDIILVVDNTFMSPYFQRPLALGADISMYSATKYMNGHSDVVMGLVSVNCESLHNRLRFLQNSLGAVPSPIDCYLCNRGLKTLHVRMEKHFKNGMAVAQFLESNPWVEKVIYPGLPSHPQHELVKRQCTGCTGMVTFYIKGTLQHAEIFLKNLKLFTLAESLGGFESLAELPAIMTHASVLKNDRDVLGISDTLIRLSVGLEDEEDLLEDLDQALKAAHPPSGSHS
binds	binds	CELF1 (other, human, UniProt Q92879 1-486, looked up) MNGTLDHPDQPDLDAIKMFVGQVPRTWSEKDLRELFEQYGAVYEINVLRDRSQNPPQSKGCCFVTFYTRKAALEAQNALHNMKVLPGMHHPIQMKPADSEKNNAVEDRKLFIGMISKKCTENDIRVMFSSFGQIEECRILRGPDGLSRGCAFVTFTTRAMAQTAIKAMHQAQTMEGCSSPMVVKFADTQKDKEQKRMAQQLQQQMQQISAASVWGNLAGLNTLGPQYLALYLQLLQQTASSGNLNTLSSLHPMGGLNAMQLQNLAALAAAASAAQNTPSGTNALTTSSSPLSVLTSSGSSPSSSSSNSVNPIASLGALQTLAGATAGLNVGSLAGMAALNGGLGSSGLSNGTGSTMEALTQAYSGIQQYAAAALPTLYNQNLLTQQSIGAAGSQKEGPEGANLFIYHLPQEFGDQDLLQMFMPFGNVVSAKVFIDKQTNLSKCFGFVSYDNPVSAQAAIQSMNGFQIGMKRLKVQLKRSKNDSKPY
